The text below walks through data of article PMC6044554.

This assay deals with InlPΔLRR5-GST fusion protein (Listeria monocytogenes). The experiment in a line: pull-down; GST or GST fusion bait on Glutathione Sepharose 4B incubated overnight with MDCK cell lysate; beads boiled in SDS sample buffer; Western blot with anti-afadin antibody.

afadin (MDCK cells) (natural protein) gave a fold decrease of afadin binding against InlP-GST greater than 10 fold.
